The target of one assay is SARS-CoV-2 RBD-mFc (SARS-CoV-2, original strain, UniProt P0DTC2). Put plainly: flow cytometry on cells.
The target in the next assay is SARS-CoV-2 S2-mFc (SARS-CoV-2, original strain, UniProt P0DTC2). Description: flow cytometry on cells.
A further assay deals with SARS-CoV-2 Nucleocapsid (SARS-CoV-2, UniProt P0DTC9). Description: ELISA.

B1: mAb-56, displayed on nPnP hybridoma cells (single-ORF linker format) (antibody, V domains shown)
VH: EVQLVESGGGLIQPGGSMRLSCAASGFSVGTTYMSWVRQAPGKGLEWVSVVFKGHDTYYRKSVKGRFTISRDSSKNTLYLQMSDLRAEDSAVYFCTNMVLTYDSGWYWLDYWGQGIRVTVSS
VL: DIQMTQSPSPLSAFVGDMVTITCRASQSINNFLNWYQQKPGKAPRLLIYGASTLETGVPTRFSGSGSGTDFTFTISSLQPEDIATYYCQQYDNLPLTFGGGTKVEIK
For B1, the binding result in the assay with SARS-CoV-2 RBD-mFc is given as “binds”.

B2: mAb-115, displayed on nPnP hybridoma cells (single-ORF linker format) (antibody, V domains shown)
VH: EVQVVESGGGLVKPGGSLRLSCSVSGTTLADAWLNWVRQAPGKGLEWVGRIKSKPDVGTTEYAAPVKGRFIISRDDSGNSFFLQMTDLKPEDTAVYYCAARWEMQLWLRLFDFWGPGALVTVSS
VL: EIVVTQSPATLSVSAGERANLSCRTSQSISRDLAWYQQKPGQAPRLLIYGVFSRATGIPARFSGSGSGTEFTLTISSLQSEDFAVYYCQQYNKWWTFGQGTKVEIK
As for B2, the binding result with SARS-CoV-2 S2-mFc was “binds”.

B3: mAb-76, displayed on nPnP hybridoma cells (single-ORF linker format) (antibody, V domains shown)
VH: QVQLQQWGAGLLKPSETLSRTCGVYGGSFSGFYWSWIRQPPGKGLEWIGEINQSGTTSYNPSLMSRVTVSVDTSKNQFSLKLNSVTAADTAVYYCARRRSSWFEAGVHWYFDLWGRGTLVTVSS
VL: DIVMTQSPLSLAVTPGEPASISCRSSQSLLHSNGYNYLDWYLQKPGQSPQVLIYLGSNRASGVPDRFSGSGSGTDYTLKISRVEAEDAGVYYCMQALQTPTFGRGTKLEIK
In the case of B3, the binding result with SARS-CoV-2 RBD-mFc is recorded as “binds”.

B4: mAb-111, displayed on nPnP hybridoma cells (single-ORF linker format) (antibody, V domains shown)
VH: DVQLLESGGGLVQPGGSRRLSCAASGFTFSNHAMSWVRQAPGKGLEWVSSISGSGGSTDYGDSVKGRFIVSRDNPRNTLYLDMNNLRTQDTAVYYCAKDRTFFTDSMLESWGEGTLVTVSS
VL: DIQMTQSPSSLSASVGDRVTITCRASQTISKSLNWYQQRPGKAPKLLIYAASNLQSGFPSRFSGSGSGTDFTLTISSVQPGDFATYYCQQTYSTPVTFGQGTTLEIK
With B4, in the assay with SARS-CoV-2 S2-mFc, the binding result was “binds”.

B5: mAb-78, displayed on nPnP hybridoma cells (single-ORF linker format) (antibody, V domains shown)
VH: QVQLVESGGGVVQPGRSLTLSCAVSGFSFNNYGMHWVRQAPGKGLEWVSFISYEGSKRYYMDSLKGRFTISRDSSKNEVYLQMNRLTPEDTAVYYCAKSRAYFHFSAGRGVFDYWGRGALVTVSS
VL: DMQMTQSPSSLSASVGDRVTITCQASQDIGTYLNWYRHKPGEAPKLLIYHASNLETGVPSRFSGSGSGTDFSFTISSLQPEDIGTYYCQQYDDLPVFAFGPGTKVDLK
With B5, in the assay with SARS-CoV-2 S2-mFc, the binding result is given as “binds”.

B6: mAb-80, displayed on nPnP hybridoma cells (single-ORF linker format) (antibody, V domains shown)
VH: EVQLVESGGGLVQPGGSLRLSCAASGFTFSSYWMHWVRQAPGKGLVWVSRINSDERNTRYADSVRGRFTISRDNAKNTLSLQMNSLRVDDTAVYYCARGGAAISYLYYYYGMDVWGQGTTVTVSS
VL: not shown
With B6, the binding result in the assay with SARS-CoV-2 S2-mFc is on record as “binds”.

B7: CR3022, secreted by nPnP hybridoma cells (single-ORF linker format), supernatant (antibody, V domains shown)
VH: QMQLVQSGTEVKKPGESLKISCKGSGYGFITYWIGWVRQMPGKGLEWMGIIYPGDSETRYSPSFQGQVTISADKSINTAYLQWSSLKASDTAIYYCAGGSGISTPMDVWGQGTTVTVSS
VL: not shown
For B7, the binding result with SARS-CoV-2 Nucleocapsid is given as “no binding”.

The values above are taken from PMC8692065 (Cell Reports, 2021).
